# Laboratory results reported in US20120277161A1, “INHIBITION OF MULTIPLE CELL ACTIVATION PATHWAYS” (INTER-K PTY LIMITED, priority 2009, published 2012).
# Assays:
# [1] = system: cell adhesion mediated ERK activation in HT29 human colon cancer cells; assay: ERK cell adhesion assay (fibronectin), phospho-ERK1/2 ELISA; format: cell-based
# Experimental: Experimental wells were coated with 100 μL of fibronectin (1-10 μg/mL, Sigma-Aldrich) or 100 μL of 1% BSA (negative control, Sigma-Aldrich). Plates were then incubated at 37° C. for 1 hour before being washed with 100 μL PBS. 100 μL of 1% BSA was then added to each well for 30 minutes to block non-specific binding (37°). HT29 human colon cancer cells were harvested using 0.5% trypsin-EDTA and 50,000 cells were plated into each empty well in 100 μL of serum free media (SFM; DMEM supplemented with 1% (v/v) L-glutamine and 2% (v/v) 1M HEPES solution). 100 μL of SFM with or without PP2 (final concentration 5 μM, specific c-Src inhibitor, Sigma-Aldrich), was then added to each well. Plates were centrifuged at 200 rpm for 5 minutes and then incubated at 37° C. for one hour. Phospho-ERK1/2 levels in the cell groups was evaluated by ELISA (Active Motif assay kit, Australian Biosearch) essentially as described in Example 7.1.
# A study was undertaken to evaluate the effect of the PI3K inhibitor Wortmannin (0.25 μM final concentration) on cell adhesion mediated ERK activation in HT29 human colon cancer cells. Phospho-ERK1/2 levels were measured as an indicator of ERK activation substantially as described in Example 7.1. Increasing levels of phospho-ERK1/2 in HT29 cells correlated with increasing levels of fibronectin in the absence of serum stimulation of the HT29 cells.
# [2] = target: c-SRC (h) (Homo sapiens, UniProt P12931); assay: c-Src kinase activity assay (cell-free, 33P-ATP); format: biochemical; conditions: peptide 50 μM, relative to control
# Experimental: In a final reaction volume of 25 μL, c-SRC (h) (5-10 mU) is incubated with 8 mM MOPS pH 7.0, 0.2 mM EDTA, 250 μM KVEKIGEGTYGVVYK (SEQ ID No. 19) (Cdc2 peptide), 10 mM MgAcetate and [γ-33P-ATP] (specific activity approx. 500 cpm/pmol, concentration as required). The reaction is initiated by the addition of the MgATP mix. After incubation for 40 minutes at room temperature, the reaction is stopped by the addition of 5 μL of a 3% phosphoric acid solution. 10 μL of the reaction is then spotted onto a P30 filtermat and washed three times for 5 minutes in 75 mM phosphoric acid and once in methanol prior to drying and scintillation counting.
# [3] = target: MEK1 (h) (Homo sapiens, UniProt Q02750); assay: MEK1 kinase activity assay; format: biochemical; conditions: 50 μM
# Experimental: The reaction is initiated by the addition of the MgATP. After incubation for 40 minutes at room temperature, 5 μL of this incubation mix is used to initiate an ERK2 (m) assay.
# [4] = target: human Yes (Homo sapiens, UniProt P07947); assay: Yes kinase activity assay; format: biochemical; conditions: peptide 50 μM
# human Yes, sequence (P07947 whole entry): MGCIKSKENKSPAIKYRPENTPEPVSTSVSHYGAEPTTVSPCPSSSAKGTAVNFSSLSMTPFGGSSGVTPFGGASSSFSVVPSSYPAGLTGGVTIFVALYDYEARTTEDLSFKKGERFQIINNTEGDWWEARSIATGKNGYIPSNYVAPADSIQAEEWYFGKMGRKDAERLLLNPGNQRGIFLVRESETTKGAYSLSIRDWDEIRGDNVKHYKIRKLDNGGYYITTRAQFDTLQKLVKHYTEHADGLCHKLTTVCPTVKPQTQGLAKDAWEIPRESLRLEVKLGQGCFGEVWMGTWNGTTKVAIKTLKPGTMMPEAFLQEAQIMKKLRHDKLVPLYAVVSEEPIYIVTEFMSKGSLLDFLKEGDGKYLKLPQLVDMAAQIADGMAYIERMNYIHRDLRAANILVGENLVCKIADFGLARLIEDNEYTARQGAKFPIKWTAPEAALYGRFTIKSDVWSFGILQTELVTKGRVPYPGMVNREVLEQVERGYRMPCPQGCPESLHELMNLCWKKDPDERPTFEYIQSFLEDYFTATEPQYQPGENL
# Experimental: In a final reaction volume of 25 μl, human Yes is incubated with the RSKAKNPLYR peptide (SEQ ID No: 6) in 8 mM MOPS buffer pH 7.0, 0.2 mM EDTA, 0.1 mg/ml poly(Glu,Tyr) 4:1, 10 mM Mg acetate and [γ-33P-ATP] (specific activity approx. 500 cpm/pmol). The reaction is initiated by the addition of the MgATP mix, incubated for 40 minutes at room temperature prior to being stopped and kinase activity assessed by scintillation counting again as per the protocol described for c-Src in Example 1.1.
# [5] = target: human Lyn (Homo sapiens, UniProt P07948); assay: Lyn kinase activity assay; format: biochemical; conditions: peptide 50 μM
# human Lyn, sequence (P07948 whole entry): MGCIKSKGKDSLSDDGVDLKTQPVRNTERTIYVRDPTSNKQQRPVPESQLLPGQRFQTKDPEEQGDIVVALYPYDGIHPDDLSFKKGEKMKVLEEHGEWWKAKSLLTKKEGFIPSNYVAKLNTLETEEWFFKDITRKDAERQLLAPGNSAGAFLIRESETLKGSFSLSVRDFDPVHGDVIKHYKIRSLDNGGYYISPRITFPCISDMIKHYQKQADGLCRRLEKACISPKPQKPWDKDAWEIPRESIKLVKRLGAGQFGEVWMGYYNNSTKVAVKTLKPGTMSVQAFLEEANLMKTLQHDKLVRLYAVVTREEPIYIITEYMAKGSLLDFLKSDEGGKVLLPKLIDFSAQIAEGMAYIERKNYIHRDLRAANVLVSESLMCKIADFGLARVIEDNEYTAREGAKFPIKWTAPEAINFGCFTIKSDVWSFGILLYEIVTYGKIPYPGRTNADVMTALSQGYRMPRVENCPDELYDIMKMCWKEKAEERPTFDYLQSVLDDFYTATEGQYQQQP
# Experimental: In a final reaction volume of 25 μl, human Lyn is incubated with the RSKAKNPLYR peptide (SEQ ID No: 6) in 50 mM Tris buffer pH 7.5, 0.1 mM EGTA, 0.1 mM Na3VO4, 1% mercaptoethanol, 0.1 mg/ml poly(Glu,Tyr) 4:1, 10 mM Mg acetate and [γ-33P-ATP] (specific activity approx. 500 cpm/pmol). The reaction was initiated by the addition of the MgATP mix, incubated for 40 minutes at room temperature prior to being stopped and kinase activity assessed by scintillation counting as per the protocol described for c-Src described in Example 1.1.
# [6] = system: ADDP human ovarian carcinoma cell line; assay: Cell proliferation (MTT) assay, ADDP cells; format: cell-based
# Experimental: (§1) 6.1 Cell Proliferation (MTT) Assay Single cell suspensions of viable trypsinised cells were seeded into 96-well tissue culture plates at a density of 2×10^3 cells per well in a volume of 100 μl of a suitable culture media supplemented with heat inactivated foetal calf serum (FCS) (e.g., Dulbecco's Modified Eagles Medium (DMEM), with 10% v/v FCS, 1% L-glutamine, 2% (v/v) Hepes, and antibiotics). A set of triplicate wells was prepared for each concentration of the peptide dendrimer being tested. Additional sample wells containing untreated cells or media alone were set up in each treatment plate and processed in parallel as reference controls. A zero-time plate of untreated cells and media-alone wells was simultaneously prepared and an MTT assay carried out on this plate at the time of addition of the kinase inhibitor (i.e., polypeptide or dendrimer) to treatment plates. All plates were cultured for 24 hours before addition of the test dendrimer.
# To prepare the MTT solution 100 mg of MTT (3-(4,5-dimethylthiazolyl-2)-2,5-diphenyltetrazolium bromide) (Cat #. M-128, Sigma, St Louis Mo.), is mixed with 20 ml of PBS at pH 7.4. The resulting solution is filter sterilized (0.2 μM syringe filter) and stored at 4° C. protected from light until use. MTT substrate is cleaved in growing cells to yield a water insoluble salt. After solubilisation of the salt crystals, a coloured product is produced the measurement of which allows quantitation of the proliferative activity of the cultured cells.
# Appropriate concentrations of the kinase inhibitor were prepared by dilution of freshly prepared sterile 1 mM stock solutions into cell culture media to give a final well volume of 200 μl containing 10% v/v FCS. The zero-plate was processed by addition of MTT at this time. Cell culture was continued for a further 24 or 48 hours before addition of 20 μl of MTT in PBS (5 mg/ml, 0.2 um filter sterilised). The MTT cell proliferation assay measures cell proliferation rate and, in instances where cell viability is compromised, the assay indicates a comparative reduction in cell viability. After a 3 hour incubation in the presence of MTT (5% CO2 in air at 37° C.), plates were centrifuged at 450 g for 5 minutes, supernatant was removed by gentle suction and precipitated tetrazolium salt resuspended into 150 μl DMSO:glycine (0.1M glycine, 0.1M NaCl pH 10.5) (6:1 v/v) solution. Plates were gently vortexed to complete solubilisation of crystalline material and absorbance was read at 550 nm using a microplate reader. Sample data were processed to determine the comparative growth of treated samples relative to untreated controls.
# [7] = system: A2780 ovarian cancer cell line; assay: Cell proliferation (MTT) assay, A2780 cells; format: cell-based, human; conditions: drug alone; FIG. 6
# Experimental: as §1, with “A zero-time plate of untreated cells and media-alone wells was simultaneously prepared and an MTT assay carried out on this plate at the time of addition of the kinase inhibitor (i.e., polypeptide or dendrimer) to treatment plates. All plates were cultured for 24 hours before addition of the test dendrimer.” left out
# To prepare the MTT solution 100 mg of MTT (3-(4,5-dimethylthiazolyl-2)-2,5-diphenyltetrazolium bromide) (Cat #. M-128, Sigma, St Louis Mo.), is mixed with 20 ml of PBS at pH 7.4. […] After solubilisation of the salt crystals, a coloured product is produced the measurement of which allows quantitation of the proliferative activity of the cultured cells.
# Appropriate concentrations of the kinase inhibitor were prepared by dilution of freshly prepared sterile 1 mM stock solutions into cell culture media to give a final well volume of 200 μl containing 10% v/v FCS. […] Plates were gently vortexed to complete solubilisation of crystalline material and absorbance was read at 550 nm using a microplate reader. […]
compound,measurement,setting,value
CC(C)(C)n1nc(-c2ccc(Cl)cc2)c2c(N)ncnc21 [PP2],"phospho-ERK levels, HT29 cells on fibronectin","[1]; 5 μM, no serum stimulation, results not shown",markedly reduced
NPLYR [Peptide 8],"% Inhibition of control, c-Src tyrosine kinase activity",[2],negligible or no c-Src inhibitory activity
COC[C@H]1OC(=O)c2coc3c2[C@@]1(C)C1=C(C3=O)[C@@H]2CCC(=O)[C@@]2(C)C[C@H]1OC(C)=O [Wortmannin],reduction of cell adhesion mediated ERK activation,"[1]; 0.25 μM, HT29 cells",about 55%
RSKAK [Peptide 6],"% Inhibition of control, c-Src tyrosine kinase activity",[2],negligible or no c-Src inhibitory activity
RSKAKNPLYR [Peptide 1],inhibition of MEK1,[3],negligible inhibition
same,inhibition of Yes activity,[4],only relatively low level inhibition
same,inhibition of Lyn activity,[5],only relatively low level inhibition
same,"effect in combination with cisplatin, ADDP cells","[6]; 20 μM peptide, 72 hour culture, data not shown",synergistic effect
same,"% Inhibition of control, c-Src tyrosine kinase activity",[2],approx. 57%
WQTGT [Peptide 7],"% Inhibition of control, c-Src tyrosine kinase activity",[2],No inhibitory activity
"N.N.[Cl][Pt][Cl] [cisplatin, cis-diamminedichloroplatinum (II), reference compound]",inhibition of growth of A2780 cell line,[7],highly susceptible
same,inhibition of growth of ADDP cell line,"[6]; drug alone, FIG. 6",substantially less inhibition of growth
